The text below walks through data of FireProtDB (doi:10.1110/ps.8.4.832).

The conditions of this data set: Aspergillus oryzae (strain ATCC 42149 / RIB 40), Thermal, whole UniProt chain shown.
Setting [1] is: pH 1.1, DSC, glycine-HCl 0.1 M/0.1 M, NaCl 0.1 M, reversible: yes(77%).
Setting [2] is: pH 1.5, DSC, glycine-HCl 0.1 M/0.1 M, NaCl 0.1 M, reversible: yes(99%).
The mark [3] stands for this setting: pH 2, DSC, glycine-HCl 0.1 M/0.1 M, NaCl 0.1 M, reversible: yes(80%).
[4] abbreviates: pH 3, DSC, glycine-HCl 0.1 M/0.1 M, NaCl 0.1 M, reversible: yes(80%).
Where [5] appears, read: pH 7, DSC, None, reversible: yes(26%).

B1: Guanyl-specific ribonuclease T1 wild type, P00651 (protein)
chain: MMYSKLLTLTTLLLPTALALPSLVERACDYTCGSNCYSSSDVSTAQAAGYQLHEDGETVGSNSYPHKYNNYEGFDFSVSSPYYEWPILSSGDVYSGGSPGADRVVFNENNQLAGVITHTGASGNNFVECT
The term Tm denotes the temperature at which the thermal transition is half complete. B1: the Tm is, setting by setting: (pH 1.1, Absorbance, glycine-HCl 0.1 M/0.1 M, NaCl 0.1 M, reversible: yes(77%)) 25.9 °C; under setting [1], 28.2 °C; under setting [2], 32.3 °C; (pH 2, Absorbance, glycine-HCl 0.1 M/0.1 M, NaCl 0.1 M, reversible: yes(80%)) 33 °C; under setting [3], 37 °C; (pH 3, Absorbance, glycine-HCl 0.1 M/0.1 M, NaCl 0.1 M, reversible: yes(80%)) 46.1 °C. In addition, the Tm is 50.2 °C under setting [4]; 52.7 °C (pH 3.5, Absorbance, glycine-HCl 0.1 M/0.1 M, NaCl 0.1 M, reversible: yes(73%)); 62.8 °C (pH 7, Absorbance, None, reversible: yes(26%)); 64.4 °C under setting [5]. Also, the “unfolding enthalpy (calorimetric)” value is 43.3 kcal/mol under setting [1]; 47.6 kcal/mol under setting [2]; 68.9 kcal/mol under setting [3]; 95.7 kcal/mol under setting [4]; 123 kcal/mol under setting [5]. For the same protein, the “unfolding enthalpy (van 't Hoff)” value under setting [1] worked out at 55.7 kcal/mol; the “unfolding enthalpy (van 't Hoff)” value under setting [2] stood at 60.5 kcal/mol; the “unfolding enthalpy (van 't Hoff)” value under setting [3] is 66.3 kcal/mol; the “unfolding enthalpy (van 't Hoff)” value under setting [4] was 93.1 kcal/mol; the “unfolding enthalpy (van 't Hoff)” value under setting [5] is 116 kcal/mol.
